Article PMC5583172 (2017)
Where no end group is shown, it is not given here. [ ]: non-standard residue; d: D form. The star is where a group is joined. NMeF = CN[C@@H](Cc1ccccc1)C(=O)O; NHCH2CH2OH = OCCN*

What was measured:
[1] = target: mu opioid receptor (MOR) of wild type mouse brain (mouse (endogenous in brain), UniProt P42866 1-398)
[2] = target: human mu opioid receptor (MOR), stably expressed in HEK293 cells with GloSensor (human, UniProt P35372 1-400)
Sequence of human mu opioid receptor (MOR), stably expressed in HEK293 cells with GloSensor (P35372 whole entry): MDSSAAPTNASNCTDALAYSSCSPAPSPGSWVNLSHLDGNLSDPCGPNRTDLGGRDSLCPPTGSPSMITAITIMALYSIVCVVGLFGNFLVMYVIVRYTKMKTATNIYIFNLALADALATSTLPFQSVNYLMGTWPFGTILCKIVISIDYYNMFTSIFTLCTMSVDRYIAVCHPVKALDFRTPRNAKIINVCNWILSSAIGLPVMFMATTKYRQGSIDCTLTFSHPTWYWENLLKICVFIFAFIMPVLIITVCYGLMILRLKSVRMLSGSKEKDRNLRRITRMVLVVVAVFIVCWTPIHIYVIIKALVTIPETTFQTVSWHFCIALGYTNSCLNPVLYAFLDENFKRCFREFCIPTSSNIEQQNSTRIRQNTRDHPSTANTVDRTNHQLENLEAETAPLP

Sequence of mu opioid receptor (MOR) of wild type mouse brain (P42866 whole entry): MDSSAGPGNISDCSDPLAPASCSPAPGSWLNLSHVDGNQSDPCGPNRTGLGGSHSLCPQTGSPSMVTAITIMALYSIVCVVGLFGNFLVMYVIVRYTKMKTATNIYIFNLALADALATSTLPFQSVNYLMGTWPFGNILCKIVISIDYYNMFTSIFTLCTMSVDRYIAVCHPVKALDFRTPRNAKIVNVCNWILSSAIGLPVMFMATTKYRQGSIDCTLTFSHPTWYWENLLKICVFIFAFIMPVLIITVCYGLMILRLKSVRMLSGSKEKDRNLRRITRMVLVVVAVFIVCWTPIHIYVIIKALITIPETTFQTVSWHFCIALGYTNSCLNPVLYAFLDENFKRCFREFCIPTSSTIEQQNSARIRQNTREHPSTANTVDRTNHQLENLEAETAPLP

Y[dA]G[NMeF][NHCH2CH2OH] [DAMGO ([D-Ala2, N-MePhe4, Gly-ol]-enkephalin)] was tested. Which Ki [1] did it give?
Its Ki is 3.1 nM.

What about the Ki [2] of the same binder?
The Ki was 9.6 nM.
